# Laboratory results from US20050020492A1 (MERCK, published 2005).
# Where two headings read alike, the source gives them in different places. Positions of bridges follow the written chain, without caps; N, C: chain ends. No end group written: not given here.
# Experiments:
# human MCH-2R [1] = biological target: T1, human MCH-2R (human, UniProt Q969V1 1-340); assay: SPA, displacement of [125I]-[Phe13,Tyr19]-hMCH, MCH-2R membranes
# T1 construct: Function: 293AEQ17/MCH-2R cells; also called hMCH-2R
# Experimental: (§1) After equilibrating at room temperature for 3 hours, the plates were read in a TopCount (Packard, Meriden, Conn.). IC₅₀ calculations were performed using Prism 3.0 (GraphPad. Software, San Diego, Calif.). The IC₅₀ values were measured in three different experiments.
# human MCH-1R [2] = biological target: T2, human MCH-1R (human, UniProt Q99705 1-353); assay: SPA, displacement of [125I]-[Phe13,Tyr19]-hMCH, CHO/MCH-1R membranes
# T2 construct: Function: 293AEQ17/MCH-1R cells; also called hMCH-1R
# Experimental: as §1
# human MCH-1R [3] = biological target: T2, human MCH-1R; assay: cell-based or functional assay
# human MCH-2R [4] = biological target: T1, human MCH-2R; assay: cell-based or functional assay
# human MCH-1R [5] = biological target: T2, human MCH-1R; assay: cell-based or functional assay; remark: listed apart in the source
# human MCH-2R [6] = biological target: T1, human MCH-2R; assay: cell-based or functional assay; remark: listed apart in the source
# human MCH-2R [7] = biological target: T1, human MCH-2R; assay: SPA, displacement of [125I]-[Phe13,Tyr19]-hMCH, MCH-2R membranes; remark: listed apart in the source
# Experimental: as §1
# human MCH-1R [8] = biological target: T2, human MCH-1R; assay: cell-based or functional assay; remark: listed apart in the source
# human MCH-2R [9] = biological target: T1, human MCH-2R; assay: cell-based or functional assay; remark: listed apart in the source
# human MCH-2R [10] = biological target: T1, human MCH-2R; assay: SPA, displacement of [125I]-[Phe13,Tyr19]-hMCH, MCH-2R membranes; remark: listed apart in the source
# Experimental: as §1
# human MCH-1R [11] = biological target: T2, human MCH-1R; assay: ratio of the two SPA IC50s
# human MCH-1R [12] = biological target: T2, human MCH-1R; assay: SPA, displacement of [125I]-[Phe13,Tyr19]-hMCH, CHO/MCH-1R membranes; remark: listed apart in the source
# Experimental: as §1
# human MCH-1R [13] = biological target: T2, human MCH-1R; assay: cell-based or functional assay; remark: listed apart in the source
# T1 sequence (Q969V1 whole entry): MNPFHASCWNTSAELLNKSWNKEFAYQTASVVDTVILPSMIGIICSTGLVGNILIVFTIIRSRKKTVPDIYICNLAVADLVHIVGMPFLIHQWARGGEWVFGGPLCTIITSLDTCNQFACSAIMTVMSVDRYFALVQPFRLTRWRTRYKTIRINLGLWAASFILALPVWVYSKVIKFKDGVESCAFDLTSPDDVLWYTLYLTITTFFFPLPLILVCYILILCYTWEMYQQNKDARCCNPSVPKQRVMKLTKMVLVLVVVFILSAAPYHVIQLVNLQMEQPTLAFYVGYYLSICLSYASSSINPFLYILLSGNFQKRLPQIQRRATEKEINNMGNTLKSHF
# T2 sequence (Q99705 whole entry): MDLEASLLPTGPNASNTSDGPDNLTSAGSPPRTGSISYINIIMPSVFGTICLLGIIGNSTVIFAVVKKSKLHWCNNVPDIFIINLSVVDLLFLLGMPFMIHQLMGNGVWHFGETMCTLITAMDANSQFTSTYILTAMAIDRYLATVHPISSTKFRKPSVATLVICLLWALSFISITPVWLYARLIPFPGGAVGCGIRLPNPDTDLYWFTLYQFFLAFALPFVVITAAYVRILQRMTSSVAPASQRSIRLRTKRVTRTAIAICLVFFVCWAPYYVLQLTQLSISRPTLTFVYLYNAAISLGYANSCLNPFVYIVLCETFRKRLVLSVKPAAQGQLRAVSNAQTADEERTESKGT
IC50 (human MCH-2R [1]) [nM],IC50 (human MCH-1R [2]) [nM],"Activation %, aequorin bioluminescence (human MCH-1R [3]) [%]","EC50, aequorin bioluminescence (human MCH-1R [3]) [nM]","EC50, aequorin bioluminescence (human MCH-2R [4]) [nM]","Activation %, aequorin bioluminescence (human MCH-1R [8]) [%]","Activation %, aequorin bioluminescence (human MCH-2R [9]) [%]","EC50, aequorin bioluminescence (human MCH-2R [9]) [nM]",IC50 (human MCH-2R [10]) [nM],"Activation %, aequorin bioluminescence (human MCH-2R [4]) [%]",Selectivity 2/1 (MCH-2R/MCH-1R IC50 ratio) (human MCH-1R [11]) [ratio],"EC50, aequorin bioluminescence (human MCH-1R [8]) [nM]",Binder,also measured
1250,0.9,117,66,510,,,,,,,,"XCMLGRVYRPC (HELM PEPTIDE1{[ac].[dF].C.M.L.G.R.V.Y.R.P.C.[am]}$PEPTIDE1,PEPTIDE1,3:R3-12:R3$$$V2.0; SMILES CSCC[C@@H]1NC(=O)[C@@H](NC(=O)[C@@H](Cc2ccccc2)NC(C)=O)CSSC[C@@H](C(N)=O)NC(=O)[C@@H]2CCCN2C(=O)[C@H](CCCNC(=N)N)NC(=O)[C@H](Cc2ccc(O)cc2)NC(=O)[C@H](C(C)C)NC(=O)[C@H](CCCNC(=N)N)NC(=O)CNC(=O)[C@H](CC(C)C)NC1=O) [SEQ. ID. NO. 9 (Ac-D-Phe^6 analog of Ac-hMCH(6-16)-NH2)]",
0.5,,100,,30.7,100,100,30.7,0.5,100,,,DFDMLRCMLGRVYRPCWQV (disulfide 7-16 (inferred)) [human MCH],"Activation %, aequorin bioluminescence (human MCH-1R [5]): 100%; Activation %, aequorin bioluminescence (human MCH-2R [6]): 100%; EC50, aequorin bioluminescence (human MCH-2R [6]): 30.7 nM; IC50 (human MCH-2R [7]): 0.5 nM"
134,3,91,920,310,,,,,68,,,XCMLGRVYRPC (N-terminal acetyl; D-Cit (D-citrulline) at position 6; C-terminal amide; disulfide cycle) [SEQ. ID. NO. 14 (Ac-D-Cit^6 analog of Ac-hMCH(6-16)-NH2)],
1460,,115,,,,,,,69,,,XCMLGRVYRPC (N-terminal acetyl; D-Nle (D-norleucine) at position 6; C-terminal amide; disulfide cycle) [SEQ. ID. NO. 7 (Ac-D-Nle^6 analog of Ac-hMCH(6-16)-NH2)],
2700,0.77,109,160,4900,,,,,51,,,"XCMLGRVYRPC (HELM PEPTIDE1{[ac].[dA].C.M.L.G.R.V.Y.R.P.C.[am]}$PEPTIDE1,PEPTIDE1,3:R3-12:R3$$$V2.0; SMILES CSCC[C@@H]1NC(=O)[C@@H](NC(=O)[C@@H](C)NC(C)=O)CSSC[C@@H](C(N)=O)NC(=O)[C@@H]2CCCN2C(=O)[C@H](CCCNC(=N)N)NC(=O)[C@H](Cc2ccc(O)cc2)NC(=O)[C@H](C(C)C)NC(=O)[C@H](CCCNC(=N)N)NC(=O)CNC(=O)[C@H](CC(C)C)NC1=O) [SEQ. ID. NO. 6 (Ac-D-Ala^6 analog of Ac-hMCH(6-16)-NH2)]",
,1.3,,,,7,105,81,18,,14,> 10000,"RCMLXRVYRPC (HELM PEPTIDE1{[ac].R.C.M.L.[O=C([C@H](Cc1ccc2ccccc2c1)N[*:1])[*:2]].R.V.Y.R.P.C.[am]}$PEPTIDE1,PEPTIDE1,3:R3-12:R3$$$V2.0; SMILES CSCC[C@@H]1NC(=O)[C@@H](NC(=O)[C@H](CCCNC(=N)N)NC(C)=O)CSSC[C@@H](C(N)=O)NC(=O)[C@@H]2CCCN2C(=O)[C@H](CCCNC(=N)N)NC(=O)[C@H](Cc2ccc(O)cc2)NC(=O)[C@H](C(C)C)NC(=O)[C@H](CCCNC(=N)N)NC(=O)[C@H](Cc2ccc3ccccc3c2)NC(=O)[C@H](CC(C)C)NC1=O) [SEQ. ID. NO. 21 (Nal(2′)^10 analog of Ac-hMCH(6-16)-NH2)]",
,,,,,,,,,,,,"XCMLNRVYAPC (HELM PEPTIDE1{[ac].[dR].C.M.L.N.R.V.Y.A.P.C.[am]}$PEPTIDE1,PEPTIDE1,3:R3-12:R3$$$V2.0; SMILES CSCC[C@@H]1NC(=O)[C@@H](NC(=O)[C@@H](CCCNC(=N)N)NC(C)=O)CSSC[C@@H](C(N)=O)NC(=O)[C@@H]2CCCN2C(=O)[C@H](C)NC(=O)[C@H](Cc2ccc(O)cc2)NC(=O)[C@H](C(C)C)NC(=O)[C@H](CCCNC(=N)N)NC(=O)[C@H](CC(N)=O)NC(=O)[C@H](CC(C)C)NC1=O) [SEQ. ID. NO. 33 (D-Arg^6, Asn^10, Ala^14 analog of Ac-hMCH(6-16)-NH2)]","IC50 (human MCH-1R [12]): 3.2 nM; Activation %, aequorin bioluminescence (human MCH-1R [5]): 109%; EC50, aequorin bioluminescence (human MCH-1R [5]): 260 nM; Activation %, aequorin bioluminescence (human MCH-2R [6]): 17%; EC50, aequorin bioluminescence (human MCH-2R [6]): > 10000 nM; fold more selective with respect to hMCH-2R (human MCH-1R [13]): ~50 fold; fold weaker agonist than the parent compound (human MCH-1R [13]): 5 fold"
,3.1,,,,91,68,310,130,,42,920,"RCMLXRVYRPC (HELM PEPTIDE1{[ac].R.C.M.L.[Cit].R.V.Y.R.P.C.[am]}$PEPTIDE1,PEPTIDE1,3:R3-12:R3$$$V2.0; SMILES CSCC[C@@H]1NC(=O)[C@@H](NC(=O)[C@H](CCCNC(=N)N)NC(C)=O)CSSC[C@@H](C(N)=O)NC(=O)[C@@H]2CCCN2C(=O)[C@H](CCCNC(=N)N)NC(=O)[C@H](Cc2ccc(O)cc2)NC(=O)[C@H](C(C)C)NC(=O)[C@H](CCCNC(=N)N)NC(=O)[C@H](CCCNC(N)=O)NC(=O)[C@H](CC(C)C)NC1=O, also called Cit^10 peptide) [SEQ. ID. NO. 27 (Cit^10 analog of Ac-hMCH(6-16)-NH2)]",Selectivity 2/1 (MCH-2R/MCH-1R EC50 activity ratio) (human MCH-1R [8]): 0.3 ratio
1030,0.3,130,94,2100,,,,,55,,,"XCMLGRVYRPC (HELM PEPTIDE1{[ac].[dK].C.M.L.G.R.V.Y.R.P.C.[am]}$PEPTIDE1,PEPTIDE1,3:R3-12:R3$$$V2.0; SMILES CSCC[C@@H]1NC(=O)[C@@H](NC(=O)[C@@H](CCCCN)NC(C)=O)CSSC[C@@H](C(N)=O)NC(=O)[C@@H]2CCCN2C(=O)[C@H](CCCNC(=N)N)NC(=O)[C@H](Cc2ccc(O)cc2)NC(=O)[C@H](C(C)C)NC(=O)[C@H](CCCNC(=N)N)NC(=O)CNC(=O)[C@H](CC(C)C)NC1=O) [SEQ. ID. NO. 13 (Ac-D-Lys^6 analog of Ac-hMCH(6-16)-NH2)]",
47,0.35,130,107,55,,,,,,,,"XCMLGRVYRPC (D-Arg at position 6, no acetyl; C-terminal amide; disulfide cycle) [SEQ. ID. NO. 4 (D-Arg^6 analog lacking an Ac group)]",
,0.28,,,,126,86,240,490,,1800,51,"Ac-RCMLNRVYRPC-NH2 (disulfide 2-11 (inferred), also called Asn^10 peptide) [SEQ. ID. NO. 25 (Asn^10 analog of Ac-hMCH(6-16)-NH2)]",Selectivity 2/1 (MCH-2R/MCH-1R EC50 activity ratio) (human MCH-1R [8]): 4.7 ratio
,0.54,,,,120,87,89,55,,100,130,"Ac-RCMLSRVYRPC-NH2 (disulfide 2-11 (inferred), also called Ser^10 peptide) [SEQ. ID. NO. 26 (Ser^10 analog of Ac-hMCH(6-16)-NH2)]",Selectivity 2/1 (MCH-2R/MCH-1R EC50 activity ratio) (human MCH-1R [8]): 0.7 ratio
